Experimental data from patent US20150098945A1 (Daiichi Sankyo, published 2015).

T1: N-terminal FLAG-tagged human ROBO4 extracellular region/domain deletion variant hROBO4-341 (human, UniProt Q8WZ75 341-1007)
T1 construct: On transfected HEK293 cells; also called pCI-FLAG-hROBO4-341; pCI-hROBO4-341
T1 sequence: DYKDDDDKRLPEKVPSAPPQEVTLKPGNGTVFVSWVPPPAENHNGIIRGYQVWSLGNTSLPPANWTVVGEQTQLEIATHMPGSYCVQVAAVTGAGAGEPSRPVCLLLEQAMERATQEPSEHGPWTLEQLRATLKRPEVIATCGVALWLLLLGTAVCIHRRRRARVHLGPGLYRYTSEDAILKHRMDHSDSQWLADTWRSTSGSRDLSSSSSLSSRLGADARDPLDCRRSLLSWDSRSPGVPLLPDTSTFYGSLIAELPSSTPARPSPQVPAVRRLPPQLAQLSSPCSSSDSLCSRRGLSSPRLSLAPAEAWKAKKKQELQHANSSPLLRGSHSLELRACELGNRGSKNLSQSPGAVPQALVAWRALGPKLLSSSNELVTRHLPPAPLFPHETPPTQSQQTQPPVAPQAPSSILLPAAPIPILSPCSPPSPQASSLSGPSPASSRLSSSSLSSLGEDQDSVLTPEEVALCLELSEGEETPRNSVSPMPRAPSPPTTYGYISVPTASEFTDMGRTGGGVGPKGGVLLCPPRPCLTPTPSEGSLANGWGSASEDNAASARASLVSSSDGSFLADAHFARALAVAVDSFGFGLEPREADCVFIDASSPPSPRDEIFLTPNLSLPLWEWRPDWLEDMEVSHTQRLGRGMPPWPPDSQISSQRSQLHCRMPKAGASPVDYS

T2: rat ROBO4 (pCI-raROBO4-transfected HEK293 cells) (rat, UniProt Q80W87 38-949 at identity 0.93))
T2 chain: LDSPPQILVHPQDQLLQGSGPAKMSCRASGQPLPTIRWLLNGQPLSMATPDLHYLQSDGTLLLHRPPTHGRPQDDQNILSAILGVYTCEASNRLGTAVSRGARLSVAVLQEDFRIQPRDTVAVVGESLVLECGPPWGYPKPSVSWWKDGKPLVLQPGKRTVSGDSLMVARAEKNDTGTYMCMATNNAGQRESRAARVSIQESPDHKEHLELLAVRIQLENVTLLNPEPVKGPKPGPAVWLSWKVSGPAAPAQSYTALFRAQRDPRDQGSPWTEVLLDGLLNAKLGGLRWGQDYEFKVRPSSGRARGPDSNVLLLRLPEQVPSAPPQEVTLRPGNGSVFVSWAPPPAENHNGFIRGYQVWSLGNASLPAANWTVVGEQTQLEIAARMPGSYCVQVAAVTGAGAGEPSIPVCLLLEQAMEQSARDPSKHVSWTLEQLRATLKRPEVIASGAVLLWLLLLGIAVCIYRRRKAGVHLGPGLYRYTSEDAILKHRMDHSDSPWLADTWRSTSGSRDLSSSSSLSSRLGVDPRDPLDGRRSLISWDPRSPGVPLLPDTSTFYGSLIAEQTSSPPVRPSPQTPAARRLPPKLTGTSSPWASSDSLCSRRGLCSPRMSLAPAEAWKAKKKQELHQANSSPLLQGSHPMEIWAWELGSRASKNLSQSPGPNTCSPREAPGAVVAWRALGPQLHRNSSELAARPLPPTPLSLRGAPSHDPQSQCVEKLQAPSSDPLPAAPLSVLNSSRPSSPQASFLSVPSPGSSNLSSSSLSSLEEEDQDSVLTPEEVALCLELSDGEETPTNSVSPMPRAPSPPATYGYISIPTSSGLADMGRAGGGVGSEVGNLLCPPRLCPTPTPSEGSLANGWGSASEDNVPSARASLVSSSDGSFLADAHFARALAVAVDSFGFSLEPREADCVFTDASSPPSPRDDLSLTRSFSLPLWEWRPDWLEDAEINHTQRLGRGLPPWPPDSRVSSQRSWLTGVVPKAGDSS


Legend:
[1] = target: T1, N-terminal FLAG-tagged human ROBO4 …; experiment: flow cytometry, HEK293 cells transfected with pCI-FLAG-hROBO4-341, anti-mouse IgG FITC; control histogram IgG (Mouse IgG2a)
Procedure: HEK293 cells were inoculated at a concentration of 1.5×10⁶ cells/dish to a 60-mm dish (manufactured by Corning Inc.) and cultured overnight in a DMEM medium containing 10% FBS at 37° C. under 5% CO₂ conditions. […] On the next day, the expression vector-transfected cells were treated with TrypLE Express (manufactured by Life Technologies Corp.), washed with PBS containing 5% FBS, and then suspended in PBS containing 5% FBS. The obtained cell suspension was used in flow cytometry analysis.
Each cell suspension prepared in 4)-5-1 was centrifuged, and the supernatant was removed. Then, MAb1, a positive control Monoclonal ANTI-FLAG M2 antibody produced in mouse, or a negative control Mouse IgG2a was added at a concentration of 10 μg/mL to 2×10⁵ expression vector-transfected cells, and the resulting suspension was left standing at 4° C. for 1 hour. The cells were washed once with PBS containing 5% FBS. Then, Anti-Mouse IgG FITC conjugate diluted 1000-fold with PBS containing 5% FBS was added thereto, and the resulting suspension was left standing at 4° C. for 1 hour. […] Data was analyzed using Flowjo. The histogram of FITC fluorescence intensity was prepared. The antibody was determined to bind to a cell when the histogram of MAb1 was shifted to a stronger fluorescence intensity region compared with the histogram of the negative control Mouse IgG2a. […]

[2] = target: T2, rat ROBO4 (pCI-raROBO4-transfected …); experiment: flow cytometry (FC500), HEK293 cells transfected with pCI-raROBO4, FITC goat anti-human IgG Fc; control histogram IgG (human IgG)

Binder | binding result [1] | binding result [2]
anti-ROBO4 mouse monoclonal antibody MAb1 (antibody, mouse IgG1, V domains shown, Mouse IgG1 (gamma1), kappa light chain, purified from hybridoma supernatant; also called parent antibody MAb1) VH: EVQLVESGGGLVKPGGSLKLSCAASGFTFSTYAMSWVRQTPEKRLEWVATISNGGTYTYYPDSVKGRFTISRDNAENTLYLQMSSLRSEDTAMYFCARLIYYDYLDYWGHGTTLTVSS VL: DAVMTQTPLSLPVSLGDQASISCRSSQSLENSNGNTYLNWYFQKPGQSPQLLIYRVSNRFSGVLDRFSGSGSGTDFTLKISRVEAEDFGVYFCLQVTHVPWTFGGGTKLEIKR | no binding (tested: 10 µg/mL) | –
humanized MAb1 antibody H-1143 (antibody, human IgG2, kappa, V domains shown, Human IgG2 / kappa constant regions; also called hMAb1-H2-type heavy chain + hMAb1-L2-type light chain) VH: EVQLVESGGGLVQPGGSLRLSCAASGFTFSTYAMSWVRQAPGKGLEWVATISQGGTYTYYPDSVKGRFTISRDNAKNTLYLQMNSLRAEDTAVYYCARLIYYDYLDYWGQGTLVTVSS VL: DIVMTQSPLSLPVTLGEPASISCRSSQSLENENKNLYLNWYLQKPGQSPQLLIYRVSNRFSGVPDRFSGSGSGTDFTLKISRVEAEDVGVYYCLQVTHVPWTFGPGTKVDIKR | – | no binding (tested: 10 µg/mL)
